Tests used:
Human VEGF-A 165 = Human VEGF-A 165 (human, UniProt P15692 207-395); experiment: cell-based or functional assay
[1] = target: T1, recombinant human VEGF165 (human, UniProt P15692 207-395); experiment: SPR (Biacore), antibody captured by anti-human Fc, hVEGF165 in solution
T1 construct: also called hVEGF165
Procedure: (§1) Unreacted moieties on the biosensor surface were blocked with ethanolamine. For kinetic analysis, rate equations derived from the 1:1 Langmuir binding model were fitted simultaneously to multiple antigen injections (using global fit analysis) with the use of Scrubber 2 (BioLogic Software), Biacore Biaevaluation 4.0.1 software or Biacore T100 Evaluation software. Purified antibodies or DVD-Ig molecules were diluted in running buffer for capture across goat anti-human Fc reaction surfaces. Antibodies or DVD-Ig molecules to be captured as a ligand (1 μg/ml) were injected over reaction matrices at a flow rate of 10 μl/minute. During the assay, all measurements were referenced against the capture surface alone (i.e., with no captured antibody or DVD-Ig molecule). […] The equilibrium dissociation constant KD (M) of the reaction between antibodies and the target antigen was then calculated from the kinetic rate constants by the following formula: KD=Koff/Kₒₙ. Binding was recorded as a function of time and kinetic rate constants were calculated. In this assay, on-rates as fast as 10⁶M⁻¹s⁻¹ and off-rates as slow as 10⁻⁶ s⁻¹ could be measured.
Affinity matured humanized anti-VEGF antibodies were characterized for hVEGF₁₆₅ binding and potency. Binding affinity of these molecules to hVEGF₁₆₅ was determined by Biacore analysis (Example 1.1). Potency was evaluated in both cell-based and ELISA formats. The ability to block binding of hVEGF₁₆₅ to hVEGFR2 was evaluated in a competition ELISA (Example 1.4) Inhibition of hVEGF₁₆₅-induced cell proliferation was assessed using HMVEC-d cells (Example 1.10).

PDGF-BB = PDGF-BB (UniProt P01127 82-190); experiment: SPR (Biacore), DVD-Ig captured by anti-human Fc, antigen injected
Procedure: as §1, with “For example, approximately 9000 RU of goat anti-human Fc specific polyclonal antibody (Thermo Fisher Scientific Inc., Rockford, Ill.) diluted in 10 mM sodium acetate (pH 4.5) is directly immobilized across a CM5 research grade biosensor chip using a standard amine coupling kit according to manufacturer's instructions and procedures at 25 μg/ml. Unreacted” for “Unreacted”, “calculated.” for “calculated. In this assay, on-rates as fast as 10⁶M⁻¹s⁻¹ and off-rates as slow as 10⁻⁶ s⁻¹ could be measured.”

VEGF-A = VEGF-A (UniProt P15692-4 27-191, limits assumed); experiment: as above
Procedure: as §1, with “For example, approximately 9000 RU of goat anti-human Fc specific polyclonal antibody (Thermo Fisher Scientific Inc., Rockford, Ill.) diluted in 10 mM sodium acetate (pH 4.5) is directly immobilized across a CM5 research grade biosensor chip using a standard amine coupling kit according to manufacturer's instructions and procedures at 25 μg/ml. Unreacted” for “Unreacted”, “calculated.” for “calculated. In this assay, on-rates as fast as 10⁶M⁻¹s⁻¹ and off-rates as slow as 10⁻⁶ s⁻¹ could be measured.”

Sequence of PDGF-BB (P01127 82-190): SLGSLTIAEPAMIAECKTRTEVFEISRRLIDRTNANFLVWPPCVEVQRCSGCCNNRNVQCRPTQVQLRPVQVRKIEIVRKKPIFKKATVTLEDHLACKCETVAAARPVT
Sequence of VEGF-A (P15692 other isoform, or with tags, fused parts or gaps limits assumed): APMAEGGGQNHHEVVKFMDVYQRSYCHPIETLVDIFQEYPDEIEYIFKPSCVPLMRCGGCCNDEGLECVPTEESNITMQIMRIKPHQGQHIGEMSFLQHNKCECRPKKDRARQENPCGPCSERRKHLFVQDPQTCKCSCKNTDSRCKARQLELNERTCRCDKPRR
T1 sequence (P15692 other isoform, or with tags, fused parts or gaps limits assumed): as above
Sequence of Human VEGF-A 165 (P15692 other isoform, or with tags, fused parts or gaps limits assumed): as above

Binder | hVEGF165 IC50 (nM), HMVEC-d proliferation (Human VEGF-A 165) [nM] | Kd [1] [nM] | kon [1] [M⁻¹ s⁻¹] | Kd (PDGF-BB) [nM] | kon (PDGF-BB) [M⁻¹ s⁻¹] | Kd (VEGF-A) [nM] | kon (VEGF-A) [M⁻¹ s⁻¹]
hBEW-1B10.1 (antibody, V domains shown) VH: EVQLVESGGGLVQPGGSLRLSCAASGFSFSKYDMAWFRQAPGKGLEWVASITTSGVGTYYRDSVKGRFTVSRDNAKSTLYLQMNSLRAEDTAVYYCARGYGAMDAWGQGTTVTVSS VL: DIQMTQSPSSLSASVGDRVTITCKASQDIDDYLSWYQQKPGKSPKLVIYAATRLADGVPSRFSGSGSGTDYTLTISSLQPEDFATYYCLQSSSTPWTFGGGTKVEIK | 0.168 |  |  |  |  |  | 
hBEW-1B10.2 (antibody, V domains shown) VH: EVQLVESGGGLVQPGGSLRLSCAASGFSFSKYDMAWFRQAPGKGLEWVASITTSGVGTYYRDSVKGRFTVSRDNAKNSLYLQMNSLRAEDTAVYYCARGYGAMDAWGQGTTVTVSS VL: DIQMTQSPSSLSASVGDRVTITCKASQDIDDYLSWYQQKPGKSPKLVIYAATRLADGVPSRFSGSGSGTDYTLTISSLQPEDFATYYCLQSSSTPWTFGGGTKVEIK | 0.222 |  |  |  |  |  | 
CL-28815-IgG (EI version of parent mAb) (antibody, V domains shown, IgG format) VH: EVQLVQSGSELKKPGASVKVSCKASGYTFTNYGMYWVRQAPGQGLEWMGWINTETGKPTYADDFKGRFVFSLDTSVSTAYLQISSLKAEDTAVYYCARTNYYYRSYIFYFDYWGQGTMVTVSS VL: EIVLTQSPATLSLSPGERATLSCRASESVSTHMHWYQQKPGQAPRLLIYGASNLESGVPARFSGSGSGTDFTLTISSLEPEDFAVYFCQQSWNDPFTFGQGTKLEIK |  | 0.012 | 9.2e+06 |  |  |  | 
3E2.1_GS_9E10.1 (PR-1612500) (bispecific antibody, human IgG1, kappa, L234A L235A, DVD-Ig: outer hBFU-3E2.1 (PDGF), inner hBEW-9E10.1 (VEGF), linkers GS-H10 / GS-L10(dR); Human IgG1 L234A, L235A, H435A with kappa light chain) heavy: EVQLVQSGAEVKKPGSSVKVSCKASGYTFTESYMYWVKQAPGQGLELIGRIDPEDGSTDYVEKFKNKATLTADKSTSTAYMELSSLRSEDTAVYFCARFGARSYFYPMDAWGQGTTVTVSSGGGGSGGGGSEIQLVQSGSELKKPGASVKVSCKASGYTFTNYGMYWVKQAPGQGLEYMGWIDTETGRPTYADDFKGRFVFSLDTSVSTAYLQISSLKAEDTAVYFCARWSGDTTGIRGPWFAYWGQGTLVTVSSASTKGPSVFPLAPSSKSTSGGTAALGCLVKDYFPEPVTVSWNSGALTSGVHTFPAVLQSSGLYSLSSVVTVPSSSLGTQTYICNVNHKPSNTKVDKKVEPKSCDKTHTCPPCPAPEAAGGPSVFLFPPKPKDTLMISRTPEVTCVVVDVSHEDPEVKFNWYVDGVEVHNAKTKPREEQYNSTYRVVSVLTVLHQDWLNGKEYKCKVSNKALPAPIEKTISKAKGQPREPQVYTLPPSREEMTKNQVSLTCLVKGFYPSDIAVEWESNGQPENNYKTTPPVLDSDGSFFLYSKLTVDKSRWQQGNVFSCSVMHEALHNAYTQKSLSLSPGK light: ETVLTQSPATLSLSPGERATLSCRASESVSTLMHWYQQKPGQQPRLLIYGASNLESGVPARFSGSGSGTDFTLTISSLEPEDFAVYFCQQSWNDPWTFGGGTKVEIKGGSGGGGSGGDIRMTQSPSSLSASVGDRVTIECLASEDIYSDLAWYQQKPGKSPKLLIYNANGLQNGVPSRFSGSGSGTDYSLTISSLQPEDVATYFCQQYNYFPGTFGQGTKLEIKRTVAAPSVFIFPPSDEQLKSGTASVVCLLNNFYPREAKVQWKVDNALQSGNSQESVTEQDSKDSTYSLSSTLTLSKADYEKHKVYACEVTHQGLSSPVTKSFNRGEC |  |  |  | ≤ 0.0043 | ≥ 9e+07 | 0.019 | 630000
3E2.1_GS_9E10.6 (PR-1612501) (bispecific antibody, human IgG1, kappa, L234A L235A, DVD-Ig: outer hBFU-3E2.1 (PDGF), inner hBEW-9E10.6 (VEGF), linkers GS-H10 / GS-L10(dR); Human IgG1 L234A, L235A, H435A with kappa light chain) heavy: EVQLVQSGAEVKKPGSSVKVSCKASGYTFTESYMYWVKQAPGQGLELIGRIDPEDGSTDYVEKFKNKATLTADKSTSTAYMELSSLRSEDTAVYFCARFGARSYFYPMDAWGQGTTVTVSSGGGGSGGGGSEVQLVQSGAEVKKPGSSVKVSCKASGYTFTNYGMYWVRQAPGQGLEWMGWIDTETGRPTYADDFKGRFTFTADKSTSTAYMELSSLRSEDTAVYYCARWSGDTTGIRGPWFAYWGQGTLVTVSSASTKGPSVFPLAPSSKSTSGGTAALGCLVKDYFPEPVTVSWNSGALTSGVHTFPAVLQSSGLYSLSSVVTVPSSSLGTQTYICNVNHKPSNTKVDKKVEPKSCDKTHTCPPCPAPEAAGGPSVFLFPPKPKDTLMISRTPEVTCVVVDVSHEDPEVKFNWYVDGVEVHNAKTKPREEQYNSTYRVVSVLTVLHQDWLNGKEYKCKVSNKALPAPIEKTISKAKGQPREPQVYTLPPSREEMTKNQVSLTCLVKGFYPSDIAVEWESNGQPENNYKTTPPVLDSDGSFFLYSKLTVDKSRWQQGNVFSCSVMHEALHNAYTQKSLSLSPGK light: ETVLTQSPATLSLSPGERATLSCRASESVSTLMHWYQQKPGQQPRLLIYGASNLESGVPARFSGSGSGTDFTLTISSLEPEDFAVYFCQQSWNDPWTFGGGTKVEIKGGSGGGGSGGDIRMTQSPSSLSASVGDRVTITCLASEDIYSDLAWYQQKPGKSPKLLIYNANGLQNGVPSRFSGSGSGTDYTLTISSLQPEDVATYFCQQYNYFPGTFGQGTKLEIKRTVAAPSVFIFPPSDEQLKSGTASVVCLLNNFYPREAKVQWKVDNALQSGNSQESVTEQDSKDSTYSLSSTLTLSKADYEKHKVYACEVTHQGLSSPVTKSFNRGEC |  |  |  | ≤ 0.0053 | ≥ 9e+07 | 0.041 | 570000
3E2.1_GS_1B10.1 (PR-1612502) (bispecific antibody, human IgG1, kappa, L234A L235A, DVD-Ig: outer hBFU-3E2.1 (PDGF), inner hBEW-1B10.1 (VEGF), linkers GS-H10 / GS-L10(dR); Human IgG1 L234A, L235A, H435A with kappa light chain) heavy: EVQLVQSGAEVKKPGSSVKVSCKASGYTFTESYMYWVKQAPGQGLELIGRIDPEDGSTDYVEKFKNKATLTADKSTSTAYMELSSLRSEDTAVYFCARFGARSYFYPMDAWGQGTTVTVSSGGGGSGGGGSEVQLVESGGGLVQPGGSLRLSCAASGFSFSKYDMAWFRQAPGKGLEWVASITTSGVGTYYRDSVKGRFTVSRDNAKSTLYLQMNSLRAEDTAVYYCARGYGAMDAWGQGTTVTVSSASTKGPSVFPLAPSSKSTSGGTAALGCLVKDYFPEPVTVSWNSGALTSGVHTFPAVLQSSGLYSLSSVVTVPSSSLGTQTYICNVNHKPSNTKVDKKVEPKSCDKTHTCPPCPAPEAAGGPSVFLFPPKPKDTLMISRTPEVTCVVVDVSHEDPEVKFNWYVDGVEVHNAKTKPREEQYNSTYRVVSVLTVLHQDWLNGKEYKCKVSNKALPAPIEKTISKAKGQPREPQVYTLPPSREEMTKNQVSLTCLVKGFYPSDIAVEWESNGQPENNYKTTPPVLDSDGSFFLYSKLTVDKSRWQQGNVFSCSVMHEALHNAYTQKSLSLSPGK light: ETVLTQSPATLSLSPGERATLSCRASESVSTLMHWYQQKPGQQPRLLIYGASNLESGVPARFSGSGSGTDFTLTISSLEPEDFAVYFCQQSWNDPWTFGGGTKVEIKGGSGGGGSGGDIQMTQSPSSLSASVGDRVTITCKASQDIDDYLSWYQQKPGKSPKLVIYAATRLADGVPSRFSGSGSGTDYTLTISSLQPEDFATYYCLQSSSTPWTFGGGTKVEIKRTVAAPSVFIFPPSDEQLKSGTASVVCLLNNFYPREAKVQWKVDNALQSGNSQESVTEQDSKDSTYSLSSTLTLSKADYEKHKVYACEVTHQGLSSPVTKSFNRGEC |  |  |  | 0.0018 | 8.4e+07 | 0.32 | 350000
3E2.1_GS_1E3.4 (PR-1613190) (bispecific antibody, human IgG1, kappa, L234A L235A, DVD-Ig: outer hBFU-3E2.1 (PDGF), inner hBEW-1E3.4 (VEGF), linkers GS-H10 / GS-L10(dR); Human IgG1 L234A, L235A, H435A with kappa light chain) heavy: EVQLVQSGAEVKKPGSSVKVSCKASGYTFTESYMYWVKQAPGQGLELIGRIDPEDGSTDYVEKFKNKATLTADKSTSTAYMELSSLRSEDTAVYFCARFGARSYFYPMDAWGQGTTVTVSSGGGGSGGGGSEIQLVQSGSELKKPGASVKVSCKASGYPFTNSGMYWVKQAPGQGLEYMGWINTEAGKPTYADDFKGRFVFSLDTSVSTAYLQISSLKAEDTAVYFCARWGYISDNSYGWFDYWGQGTLVTVSSASTKGPSVFPLAPSSKSTSGGTAALGCLVKDYFPEPVTVSWNSGALTSGVHTFPAVLQSSGLYSLSSVVTVPSSSLGTQTYICNVNHKPSNTKVDKKVEPKSCDKTHTCPPCPAPEAAGGPSVFLFPPKPKDTLMISRTPEVTCVVVDVSHEDPEVKFNWYVDGVEVHNAKTKPREEQYNSTYRVVSVLTVLHQDWLNGKEYKCKVSNKALPAPIEKTISKAKGQPREPQVYTLPPSREEMTKNQVSLTCLVKGFYPSDIAVEWESNGQPENNYKTTPPVLDSDGSFFLYSKLTVDKSRWQQGNVFSCSVMHEALHNAYTQKSLSLSPGK light: ETVLTQSPATLSLSPGERATLSCRASESVSTLMHWYQQKPGQQPRLLIYGASNLESGVPARFSGSGSGTDFTLTISSLEPEDFAVYFCQQSWNDPWTFGGGTKVEIKGGSGGGGSGGATQLTQSPSSLSASVGDRVTISCRASEGVYSYMHWYQQKPGKQPKLLIYKASNLASGVPSRFSGSGSGTDFTLTISSLQPEDFATYFCHQNWNDPLTFGQGTKLEIKRTVAAPSVFIFPPSDEQLKSGTASVVCLLNNFYPREAKVQWKVDNALQSGNSQESVTEQDSKDSTYSLSSTLTLSKADYEKHKVYACEVTHQGLSSPVTKSFNRGEC |  |  |  | ≤ 0.0053 | ≥ 9e+07 | 0.26 | 360000

Reference: patent US20170015742A1 (published 2017)
